We go through one molecule from publication PMC7199855, “GRAF2, WDR44, and MICAL1 mediate Rab8/10/11–dependent export of E-cadherin, MMP14, and CFTR ΔF508” (The Journal of Cell Biology, 2020).

In one test the target is T1, GST–WDR44 ΔC (human, UniProt Q5JSH3 1-472).
T1 construct: aa 1–472 of human WDR44 (N-tag clone: forward primer begins at codon 2); source: E. coli BL21(DE3) pLysS, purified on glutathione sepharose beads; not shown: GST, N-terminal, kept
T1 sequence (looked up): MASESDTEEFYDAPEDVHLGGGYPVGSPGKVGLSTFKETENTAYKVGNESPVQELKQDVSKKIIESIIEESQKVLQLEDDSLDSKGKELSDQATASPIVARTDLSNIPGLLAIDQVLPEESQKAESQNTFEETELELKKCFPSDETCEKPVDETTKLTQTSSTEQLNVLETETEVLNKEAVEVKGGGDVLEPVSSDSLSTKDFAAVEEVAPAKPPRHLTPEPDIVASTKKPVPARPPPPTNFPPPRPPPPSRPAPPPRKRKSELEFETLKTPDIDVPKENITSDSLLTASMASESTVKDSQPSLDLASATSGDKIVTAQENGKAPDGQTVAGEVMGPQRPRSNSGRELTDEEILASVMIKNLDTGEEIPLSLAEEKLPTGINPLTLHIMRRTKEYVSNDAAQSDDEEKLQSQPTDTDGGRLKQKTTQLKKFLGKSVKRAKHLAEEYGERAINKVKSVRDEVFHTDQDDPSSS
The test can be described thus: pull-down; in vitro: GST-tagged WDR44 or MICAL1 domains on glutathione sepharose beads with an equal amount of Thrombin-released GRAF2 SH3, 30 min 4°C, washed in bacterial lysis buffer (20 mM Hepes pH 7.4, 1 mM DTT, NaCl); Coomassie staining. As to conditions: both partners purified.

In a further test the target is T2, GST–MICAL1 ΔMOΔCH (human, UniProt Q8TDZ2 651-1067).
T2 construct: aa 651–1067 of human MICAL1; source: E. coli BL21(DE3) pLysS, purified on glutathione sepharose beads; not shown: GST, N-terminal, kept
T2 sequence (looked up): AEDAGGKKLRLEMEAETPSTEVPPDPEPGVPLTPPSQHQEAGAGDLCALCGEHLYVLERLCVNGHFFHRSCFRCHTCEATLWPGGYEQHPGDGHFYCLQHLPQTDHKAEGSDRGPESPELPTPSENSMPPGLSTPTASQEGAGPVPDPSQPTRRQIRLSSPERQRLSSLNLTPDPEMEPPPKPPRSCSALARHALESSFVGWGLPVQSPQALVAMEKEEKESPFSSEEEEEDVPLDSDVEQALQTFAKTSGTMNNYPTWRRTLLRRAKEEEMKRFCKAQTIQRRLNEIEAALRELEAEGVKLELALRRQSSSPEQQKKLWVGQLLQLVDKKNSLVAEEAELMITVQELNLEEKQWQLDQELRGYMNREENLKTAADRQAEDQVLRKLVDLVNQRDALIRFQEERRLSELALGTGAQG
The test is described as above. The note with it: both partners purified.

B1: GRAF2 SH3 (released from GST by Thrombin) (domain or fragment, human, UniProt A1A4S6 718-786, looked up)
chain: ATVADKPPESIRSRKARAVYPCEAEHSSELSFEIGAIFEDVQTSREPGWLEGTLNGKRGLIPQNYVKLL
notes: SH3 domain construct, aa 718–786 of human GRAF2; same construct as m2 with GST cut off; source: E. coli BL21(DE3) pLysS; released from GST-GRAF2 SH3 beads with Thrombin; not shown: GST, N-terminal, cleaved
B1: the binding result in the test with GST–WDR44 ΔC and with GST–MICAL1 ΔMOΔCH was “binds” in each case.
